Source: PMC10682421
Each block holds one molecule with its values, some of them ahead of it.

Experiments:
[1] = biological target: amyloid beta peptide Aβ 1–42 (fibrils)
[2] = biological target: amyloid beta peptide Aβ 3–28 (fibrils)

decrease of SANS scattering intensity at q < 0.01 between the beginning (300 s) and the end of the kinetic experiment (fibril disaggregation; 37 °C, deuterated HCC 1 mg/mL) [1]: 4%
Molecule: human cystatin C (wild type) (from UniProt P01034 27-146) (natural protein)

decrease of SANS scattering intensity at q < 0.01 between the beginning (300 s) and the end of the kinetic experiment (fibril disaggregation; 37 °C, deuterated HCC 1 mg/mL, 1–10 h) [2]: > 70%
B1: human cystatin C (wild type) (natural protein)
chain: SSPGKPPRLVGGPMDASVEEEGVRRALDFAVGEYNKASNDMYHSRALQVVRARKQIVAGVNYFLDVELGRTTCTKTQPNLDNCPFHDQPHLKRKAFCSFQIYAVPWQGTMTLSKSTCQDA
modifications: 2H-labelled (deuterated) in D-HCC; protonated in H-HCC
